B3: Saccharomyces cerevisiae clathrin heavy chain N-terminal domain (ScChc-NTD, 1-369) (domain or fragment, UniProt P22137 1-369, looked up)
chain: MSDLPIEFTELVDLMSLGISPQFLDFRSTTFESDHFVTVRETKDGTNSVAIVDLAKGNEVTRKNMGGDSAIMHPSQMVISVRANGTIVQIFNLETKSKLKSFTLDEPVIFWRWLSETTLGFVTARSILTSNVFDGNVNAKPQLLTLRHANLNNTQIINFVANKNLDWFAVVGILQENGRIAGRIQLFSKQRNISQAIDGHVAIFTNILLEGNGSTPVQVFVTGNRNATTGAGELRIIEIDHDASLPSQYQKETTDIFFPPDATNDFPIAVQVSEKYGIIYLLTKYGFIHLYELETGTNLFVNRITAESVFTAAPYNHENGIACINKKGQVLAVEISTSQIVPYILNKLSNVALALIVATRGGLPGADDL
notes: Clathrin heavy chain N-terminal domain, Saccharomyces cerevisiae, residues 1-369; pETM-30 vector with a His-GST tag and a TEV cleavage site; also called WT NTD; source: E. coli BL21 (DE3), purified (Ni-NTA, TEV cleavage, reverse Ni-NTA, SEC)

Experiments:
ScChc-NTD = target: T1, ScChc-NTD (Saccharomyces cerevisiae, UniProt P22137); assay: Native MS titration of Ent5.1, 1.75 µM protein in 200 mM NH4AcO pH 9.0; assay type: binding; conditions: global non-linear square fitting of the five measured fractions, four independent sites with the same affinity; read-out: microscopic KD
T1 construct: N-terminal domain (ScChc-NTD, 1–369) was cloned in a pETM-30 vector; His-GST (TEV site); made in house; host or cells: E. coli BL21 (DE3)
T1 sequence (P22137 1-369): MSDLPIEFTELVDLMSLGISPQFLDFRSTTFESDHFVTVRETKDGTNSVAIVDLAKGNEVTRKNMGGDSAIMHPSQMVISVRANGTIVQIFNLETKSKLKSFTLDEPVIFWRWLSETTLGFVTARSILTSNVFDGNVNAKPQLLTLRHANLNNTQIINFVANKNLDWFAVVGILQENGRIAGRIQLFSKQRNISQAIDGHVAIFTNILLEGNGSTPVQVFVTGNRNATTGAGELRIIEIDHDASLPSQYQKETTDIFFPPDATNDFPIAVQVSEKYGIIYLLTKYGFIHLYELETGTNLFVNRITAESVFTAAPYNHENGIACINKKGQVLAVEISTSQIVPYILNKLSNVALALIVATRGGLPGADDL
Procedure: ScChc-NTD stocks were doubly buffer-exchanged into a 200 mM NH4AcO, pH 9.0 buffered solution by two subsequent runs on P6 biospins (BioRad); the protein concentration was determined photometrically (ε280 nm = 26,930 M^−1cm^−1) and the protein was diluted into 20 µl aliquots. Final samples contained 1.75 µM protein. Samples for competition experiments were prepared similarly for constant (20 µM) Ent1 and varying (0, 5, 10, 15, 20, 25, 30 and 50 µM) Ent2 concentrations and vice versa. Mass measurements. Samples were placed into gold-coated capillaries and after ionization by nano-electrospraying mass-measured in a QE-UHMR orbitrap mass spectrometer (Thermo Fisher Scientific) as follows: 1. establishment of a (“wet”) spray using a capillary voltage of 1.10-1.15 kV but with the syringe locked as to guarantee a relatively high backing pressure. 2. […] By doing so, success in the sense of as least as possible unspecific clusters could be easily monitored by spectrum appearance and distinct downward steps of the total ion current (TIC). […]
The processed output of the native MS interaction data consists of the relative fractions of CHC bound to different numbers of peptides. In this case, we detected CHC bound to up to four peptides. […]
To average the measured fractions related to similar free ligand concentrations, we used log-spaced intervals with base 1.1 starting at 0.011 μM. […]

[1] = target: B3; assay: native MS; ScChc-NTD 1.75 µM in 200 mM NH4AcO pH 9.0, Ent5.1 peptide up to 100 µM; conditions: both partners purified
[2] = target: B3; assay: nanoDSF thermal shift; ScChc-NTD 8 µM incubated with eleven peptide concentrations (1:1 dilutions) for 15 min, heated 20-95 °C at 1 °C/min, SEC buffer (50 mM Tris pH 9, 150 mM NaCl, 0.5 mM TCEP); apparent KD from the Tm shift model, one to one binding assumed, global average over all boxes; conditions: both partners purified
[3] = target: the molecule itself; assay: crystal structure; sitting drop; NTD incubated with excess peptide (between 23 and 40 fold) for 15 min at room temperature (21 °C) before setting up plates
[4] = target: T2, Clathrin heavy chain fused to mScarlet (Chc-mScarlet), wild type (Saccharomyces cerevisiae, UniProt P22137 1-1653); assay: FRET or BRET; acceptor photobleaching FRET in living yeast cells at endocytic patches stalled with Latrunculin A, donor mNeonGreen on Ent1/Ent2, acceptor mScarlet on Chc, 21 °C; trimmed mean FRET efficiency; conditions: partners not purified
T2 construct: Clathrin heavy chain, Saccharomyces cerevisiae, the ORF of CHC1 fused in the 3' with mScarlet; also called Chc1-mScarlet; ScCHC-mScarlet; not shown: mScarlet, C-terminal, kept

[5] = target: T3, Chc-mScarlet Arrestin box mutant (Q195A, I197T, K251E) (Saccharomyces cerevisiae, UniProt P22137 1-1653, Q195A | I197T | K251E); assay: as above; conditions: partners not purified
T3 construct: Clathrin heavy chain, Saccharomyces cerevisiae, the ORF of CHC1 fused in the 3' with mScarlet, Arrestin box mutant; also called Arr mutant; source: S. cerevisiae MK100, mutated plasmid pRS315-5'UTR CHC-mScarlet, endogenous CHC1 knocked out, in living cells; not shown: mScarlet, C-terminal, kept

[6] = target: T4, Chc-mScarlet Clathrin and Arrestin box mutant (Cla+Arr) (Saccharomyces cerevisiae, UniProt P22137 1-1653, K63E | I87D | Q89A | K98E | Q195A | I197T | K251E); assay: as above; conditions: partners not purified
T4 construct: Clathrin heavy chain, Saccharomyces cerevisiae, the ORF of CHC1 fused in the 3' with mScarlet, Clathrin and Arrestin box mutant; source: S. cerevisiae MK100, mutated plasmid pRS315-5'UTR CHC-mScarlet, endogenous CHC1 knocked out, in living cells; not shown: mScarlet, C-terminal, kept

Molecule: CC[C@H](C)[C@H](N)C(=O)N1CCC[C@H]1C(=O)N[C@@H](CC(=O)O)C(=O)N[C@@H](CC(C)C)C(=O)N[C@H](C(=O)N[C@@H](CC(=O)O)C(=O)N[C@@H](CC(C)C)C(=O)N[C@@H](CC(=O)O)C(=O)N[C@@H](CC(=O)O)C(=O)O)[C@@H](C)CC (single isomer, unassigned) [Ent5.1]
- Kd (ScChc-NTD): 39.1 µM

B1: Ent5.1 CBM peptide (IPDLIDLDD) (peptide)
peptide: IPDLIDLDD
notes: also called Ent5.1 LIDL motif; LIDL peptide; source: synthetic peptide, bought: NovoProLabs
- stoichiometry N [1]: 3
- Kd [2]: ~34 µM

B2: Yap1802 CBM peptide (NPNLIDI) (peptide)
peptide: NPNLIDI
notes: source: synthetic peptide, bought: NovoProLabs
- Kd [2]: ~311 µM

Molecule: B3
- binding result [3]: binds

B4: Yap1801 CBM peptide (NLNLIDM) (peptide)
peptide: NLNLIDM
notes: as for B2
- Kd [2]: ~598 µM

B5: Ent2 endogenously tagged with mNeonGreen (Ent2-mNeonGreen) (natural protein, UniProt Q05785 1-613, looked up)
chain: MSKQFVRSAKNMMKGYSSTQVLVRDATANDSRTPSIDTLDDLAQRSYDSVDFFEIMDMLDKRLNDKGKYWRHVAKSLTVLDYLVRFGSENCVLWCRENFYVIKTLREFRHENESGFDEGQIIRVKAKELVSLLNDEERLREERSMNTRNRRANRAARPRPRRQRTRSNPHDSSPSYQDDLEKALEESRITAQEDEQRRRELAQYDDEDPDFQAALQLSKEEEELKQLQELQRLQKQQQSLSQFQAPLQQQQPQQQPAYYDIFGNPISQDEYLQYQYQQDQEQAMAQQRWLDQQQEQQQLAEQQYFQQQQQAAAAASALQQQQTAANMQQQQQQPADFQQPLPTGSNNPFSMDNLERQKQEQQHAQLQRQQEEARQQQEQLKLQQLQRQQQEEAQLHQKRQEEAQLQQQQAQLLQQQAQFQQQQPLKQTRTGNQSISDKYSDLNTLLATGTGIDTFGNTGEARIPAQHTKTGTFINSQGTGYKQVTNEPKNNPFLSNQYTGLPSTNIVPTQTGYGFGNQPQSPPTNSPQQNPTGISYSQPQQQQQPQQQPQYMQNFQQQQPQYAQNFQQQPQYTQNYQQQPQYIQPHQQQQQQQQQQQQQQGYTPDQGVSLIDL
notes: epsin Ent2, Saccharomyces cerevisiae, endogenous locus tagged with mNeonGreen; also called Ent2-WT-mNeonGreen; Ent2p; source: endogenously tagged, S. cerevisiae MK100, in living cells
- FRET efficiency [4]: 9.02%
- FRET efficiency [5]: 6.7%
- FRET efficiency [6]: 6.1%

B6: Apl2.1 CBM peptide (SQDLLDLF) (peptide)
peptide: SQDLLDLF
notes: also called LLDLF peptide; source: synthetic peptide, bought: NovoProLabs
- Kd [2]: ~245 µM
